Measurements published in article PMC10858898.
Several values for one entry are separate records, joined by “and”; a condition that tells them apart may be missing. Equal values may be shown once.

Experiments:
[1] = biological target: MprE7-TH1 chimeric proteusin peptide; assay: NMR titration; unlabeled SrpI titrated into 42.1 µM 15N-MprE7-TH1, MprE7-TH1:SrpI molar ratios 1:0 to 1:1, FAD 1:1 with SrpI; 100 mM NaCl, 20 mM sodium phosphate pH 7.5, 10% D2O; 25 °C, 800 MHz; TITAN 2D lineshape analysis with a two-state binding model; apparent KD; fits of subsets of the seven residues
[2] = biological target: MprE7-TH1 chimeric proteusin peptide; assay: NMR titration; unlabeled SrpI titrated into 42.1 uM 15N-labeled MprE7-TH1, MprE7-TH1:SrpI molar ratios 1:0 to 1:1, FAD at 1:1 with SrpI; 100 mM NaCl, 20 mM sodium phosphate pH 7.5, 10% D2O, 25 °C; TITAN 2D lineshape analysis, two-state binding model; apparent

| Kd [1] | Kd [2] | koff [2] | Substance |
| --- | --- | --- | --- |
| 21.9 µM and 36.9 µM and 22 µM | – | – | SrpI brominase (enzyme) |
| – | 24.9 µM | 3.7 s⁻¹ | SrpI brominase (flavin-dependent RiPP halogenase) (enzyme) |
